Results as given in paper PMC9833669.

Biological target: recombinant extracellular domain of the human AXL protein (tyrosine protein kinase receptor UFO) (human) (UniProt P30530)
Experiment: BLI

## GST-VP1u^(1-227aa) (glutathione S-transferase fused to the B19V VP1 unique region) (from UniProt Q9PZT0 1-227) (domain or fragment)
  Kd: 0.103 µM
